# According to US20250114467A1 (SHANGHAI FUDAN ZHANGJIANG BIO PHARMACEUTICAL, published 2025):
# Residue numbers refer to the chain shown, from its start.
# T1: recombinant DLL3 protein (purchased from ACRO, DL3-H5255) (human, UniProt Q9NYJ7 27-479)
# T1 construct: Bought; also called human DLL3 protein; hDLL3
# T1 sequence (looked up): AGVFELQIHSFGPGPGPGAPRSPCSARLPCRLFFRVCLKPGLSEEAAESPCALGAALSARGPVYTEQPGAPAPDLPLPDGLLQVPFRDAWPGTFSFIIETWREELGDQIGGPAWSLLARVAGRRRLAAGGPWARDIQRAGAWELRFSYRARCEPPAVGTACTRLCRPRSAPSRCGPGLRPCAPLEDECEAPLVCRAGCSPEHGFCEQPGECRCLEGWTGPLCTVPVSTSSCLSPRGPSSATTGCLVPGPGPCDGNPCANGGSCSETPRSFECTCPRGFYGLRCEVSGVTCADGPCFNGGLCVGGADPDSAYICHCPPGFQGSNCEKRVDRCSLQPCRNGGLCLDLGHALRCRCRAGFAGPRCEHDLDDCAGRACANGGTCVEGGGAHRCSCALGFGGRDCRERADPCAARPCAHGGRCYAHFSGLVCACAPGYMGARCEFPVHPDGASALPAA
# T2: human DLL3 (hDLL3) on cells (human, UniProt Q9NYJ7 27-618)
# T2 construct: whole, on cells; V5-tagged); also called DLL3 on SHP-77 cells (endogenous); hDLL3 on HEK293 cells
# T2 sequence (looked up): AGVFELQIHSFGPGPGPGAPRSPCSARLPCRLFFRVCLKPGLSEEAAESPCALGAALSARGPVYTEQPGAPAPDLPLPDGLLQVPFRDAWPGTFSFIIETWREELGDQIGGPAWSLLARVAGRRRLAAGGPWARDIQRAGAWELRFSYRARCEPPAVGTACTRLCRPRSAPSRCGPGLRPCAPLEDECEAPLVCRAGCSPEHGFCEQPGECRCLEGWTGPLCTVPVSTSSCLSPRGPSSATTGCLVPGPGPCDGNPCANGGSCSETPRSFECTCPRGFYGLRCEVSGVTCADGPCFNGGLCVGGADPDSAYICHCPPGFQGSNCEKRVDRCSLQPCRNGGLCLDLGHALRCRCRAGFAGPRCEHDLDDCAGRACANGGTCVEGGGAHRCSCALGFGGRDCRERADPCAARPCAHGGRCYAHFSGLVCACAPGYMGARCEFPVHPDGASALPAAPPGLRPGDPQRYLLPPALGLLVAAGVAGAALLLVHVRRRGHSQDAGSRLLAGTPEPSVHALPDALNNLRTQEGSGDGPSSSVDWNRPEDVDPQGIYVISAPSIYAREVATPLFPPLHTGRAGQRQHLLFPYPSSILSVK
# B1: FDA027 (antibody, human IgG1, kappa, V domains shown)
# VH: QVQLVQSGAEVKKPGASVKVSCKASGYTFTNYGMNWVRQAPGQGLEWMGWINTYTGEPTYADDFKGRVTMTTDTSTSTAYMELRSLRSDDTAVYYCARIGDSSPSDYWGQGTLVTVSS
# VL: EIVMTQSPATLSVSPGERATLSCKASQSVSNDVVWYQQKPGQAPRLLIYYASNRYTGIPARFSGSGSGTEFTLTISSLQSEDFAVYYCQQDYTSPWTFGQGTKLEIKR
# notes: also called anti-DLL3 antibody FDA027
# B2: 1A5 (antibody, V domains shown)
# VH: EVQLQQSGPELVKPGASVKISCKTSGYTFTESAMHWVKQSHGKSLEWIGGINPNNGGISYSQKFKGKATLTVDKSSSTAYMELRSLTSEDSAVYYCGSSYYRDYFDYWGQGTTLTVSS
# VL: NIVMTQSPESMSMSVGERVTLSCKASENVGTYVSWYQQKPDQSPKLLIYGASNRYTGVPDRFTGSGSATHFTLTISSVQAEDLADYHCGQSYSYPLTFGAGTKLELK
# notes: also called hybridoma antibody clone 1A5
# B3: 33F11 (antibody, V domains shown)
# VH: B2 VH with S32N, A33T, K43E, N54R, G57V, I58T, S61N, G97T, S98N, S99T
# VL: B2 VL with E9K, A68P, H70D, S77R, V78M, D85H, H87Y, S91T, S93T
# notes: Murine hybridoma monoclonal antibody; also called hybridoma antibody clone 33F11
# B4: 4H7 (antibody, V domains shown)
# VH: EVQLQQSGAELVRPGALVKLSCKASGFNFKDYYIHWVKQRPELGLEWIGWIDPENGNAIYDPKFQDKASITADTSSNTAYLHLSSLTSEGTAVYYCASEDAYYPFAYWGQGTLVTVSS
# VL: DIVMSQSPSSLAVSVGEKVTMRCKSSQSLLYSSNQKNYLAWYQQKPGQSPKLLIYWASTRESGVPDRFTGSGSGTDFTLTISSVKAEDLAVYFCQQYYSYRTFGGGTKLEIK
# notes: Murine hybridoma monoclonal antibody; also called hybridoma antibody clone 4H7
# B5: 23G2 (antibody, V domains shown)
# VH: QVQLQQSGPELVRPGVSVKISCKGSGYTFTDYAIHWVKQSRAKSPEWIGIVSTDSGKTSFNQKFKGKATMTVDKSSTTAYMELVRLTSEDSAIYYCARNPYYDYDGYAMDYWGQGTSVTVSS
# VL: DIQMTQSSSYLSVSLGGRVTIICKASDHINNWLAWYQQKPGNAPRLIISGATSLETGVPSRFSGSGSGKDYTLSITSLQTEDVATYYCQQYWSIPYTFGGGTKLEIK
# notes: Murine hybridoma monoclonal antibody; also called hybridoma antibody clone 23G2
# B6: 19C7 (antibody, V domains shown)
# VH: EVQLQQSGPELVRPGASVRMSCKASGYTFTYYVMHWVKQKPGLGLEWIGYINPYNDGTEYNEKFKGKATLTSDKSSSTAFMELSSLTSEDSAVYYCARWLLREYAMDYWGQGTSVTVSS
# VL: DIQMTQSPASLSASVGETVTITCRASDNIHNYLAWYQQKQGKSPQLLVYNAKTLADGVPSRFSGSGSGTQYSLKINSLQPEDFGSYYCQHFWSTPWTFGGGTKLEIK
# notes: Murine hybridoma monoclonal antibody; also called hybridoma antibody clone 19C7
# B7: 26D9 (antibody, V domains shown)
# VH: EVQLQQSGPELVKPGASVKMSCKASGYTFTTYVMHWVKQKPGQGLEWIGYINPYNDDTNYNEKFKGKATLTSDKSSSTAYMELSSLTSEDSAVYYCARWGLTGTGDYYAMDYWGQGTSVTVSS
# VL: B6 VL with D27G, I29V, K42R, L46V, Q79L, S93T, K103T
# notes: Murine hybridoma monoclonal antibody; also called hybridoma antibody clone 26D9
# B8: 10B1 (antibody, V domains shown)
# VH: DVKLVESGGGLVKPGGSLKLSCAASGFTFSNYTISWVRQTPEKRLEWVATFSSGGSYTYYSDSVKGRFTISRDNAKNTLYLQMSSLKSEDTAMYYCSRDRRSDGYYHLYAMDYWGQGTSVTVSS
# VL: DIQMTQTTSSLSASLGDRVTISCRASQDISHYLNWYQQKPDGTVKLLIYYTSRLHSGVPSRFSGSGSGTAYSLTISNLEQEDIATYFCQQGYTLPLTFGAGTKLELK
# notes: Murine hybridoma monoclonal antibody; also called hybridoma antibody clone 10B1
# B9: 6A2 (antibody, V domains shown)
# VH: EVQLQQSGPELVKPGASVKISCKASGYTFTDYNMNWVKQSQGKSLEWIGYIYPYNGGTGYNQKFKTKATLTVDNSSSTAYMEFRSLTSEDSAVYYCARSDPYYTMDYWGQGTSVTVSS
# VL: IIVMTQTPKFLLVSAGDRVTISCKASQSVNNDVAWYQQKPGQSPKLLIYFTSNRFTGVPDRFTGSGYGTDFTFTISSVQAEDLAVYFCQQDHNSPYTFGGGTKLEIK
# notes: Murine hybridoma monoclonal antibody; also called hybridoma antibody clone 6A2
# B10: 36H10 (antibody, V domains shown)
# VH: EVQFQQSGPELVKPGASVKISCKASGYTFTDYNIHWVRQSQGKSLEWIGLIYPFNGGIVYNQKFKSKATLTVDNSSTSAYMELRSLSSEDSAVYFCARLNWEGYWGQGSTLIVSS
# VL: DIKMTQSPSSIYAFLGERVTITCKASQDINSYLSWFQQKPGKSPKTLIYRANRLVGGVPSRFSGSGSGQDYSLTISSLEYEDVGDYYCLQYAEFPYTFGGGTKLEIK
# notes: Murine hybridoma monoclonal antibody; also called hybridoma antibody clone 36H10
# B11: 15G2 (antibody, V domains shown)
# VH: EVQLQQSGPELEKPGASVRISCKASGYSFTDYNMHWVKQSNGKSLEWIGNIDPYYGGTNYNQKFEGKATLTVDKSSSTAYMQLKSLTSEDSAVYYCARGGNNYGDYWGQGTTLTVSS
# VL: DIQMTQSPASLAASVGETVTITCRASENIYYSLAWYQQKQGKSPQLLIFNANSLEDGVPSRFSGSGSGTQYSMKINSMQPEDTATYFCKQAYDVPWTFGGGTKLEIK
# notes: Murine hybridoma monoclonal antibody; also called hybridoma antibody clone 15G2
# B12: 32E8 (antibody, V domains shown)
# VH: QVTLKESGPGILQPSQTLSLTCSFSGFSLSTSGMGVGWIRQPSGKGLEWLALIWWDDVKRYHPALKSRLTISKDTSSSQVFLKIASVDTADTATYYCARIAEVTGQVGLHYAMDYWGQGTSVTVSS
# VL: QTVLTQSPAIMSASLGERVTMTCTASSSVNSSSLHWYQQKPGSSPKLWIYTTSNLASGVPARFSGSGSGTSYSLTISSMEAEDAATYYCHQFHRSPFTFGSGTKLEIK
# notes: Murine hybridoma monoclonal antibody; also called hybridoma antibody clone 32E8
# B13: 13C2 (antibody, V domains shown)
# VH: EVKLVESGGGLVKPGGSLKLSCAASGFAFSSYDMSWVRQTPEKRLEWVATISSGGSYTYYPDSVKGRFTISRDNGRNTLYLQMSSLRSEDTALYYCASPLLGLRFAYWGQGTLVTVSA
# VL: QAVVTQESALTTSPGETVTLTCRSSTGAVTTINYANWVQEKPDHLFTGLIGGTNNRAPGVPARFSGSLIGDKAALTITGAQTEDEAIYFCALYYSNHWVFGGGTKLTVL
# notes: Murine hybridoma monoclonal antibody; also called hybridoma antibody clone 13C2
# Molecular target: T1, recombinant DLL3 protein (purchased …)
# Test: ELISA, plate-coated human DLL3 protein 1 µg/ml
# Description: Six 6-week-old SPF grade female Balb/C mice (purchased from Shanghai Jihui Laboratory Animal Care Co., Ltd.) were selected and randomly divided into two groups, A and B. They were immunized with recombinant DLL3 protein (purchased from ACRO, DL3-H5255) at two-week intervals. Freund's complete adjuvant was used for the first immunization and Freund's incomplete adjuvant was used for subsequent immunizations. On days 35 and 49, blood samples were collected from the mice via orbital bleeding, and the immune serum titers of the mice were detected using conventional methods of ELISA and Flow Cytometry (FACS). ELISA detection method: DLL3 protein was diluted with PBS to a concentration of 1 μg/ml. 100 μl/well was added to a 96-well ELISA plate and incubated overnight at 4° C. The next day, the supernatant was discarded, and each well was blocked with 200 μl of 2% milk in PBS for 2 hours. After discarding the blocking solution, the wells were washed 3 times with 200 μl of PBST (0.1% Tween20). The serum to be detected was pre-diluted 100 times as the starting concentration, followed by a 3-fold gradient dilution across 11 concentrations, with 100 μl added to each well of the ELISA plate. After incubating at room temperature for 1 hour, the supernatant was discarded and the wells were washed 5 times with 200 μl of PBST (0.1% Tween20). Then, 100 μl of HRP-labeled goat anti-mouse secondary antibody (Jackson, 1:10000) was added and incubated at room temperature for 1 hour. After discarding the supernatant, the wells were washed 7 times with 200 μl of PBST (0.1% Tween20). 100 μl of TMB chromogen solution was added to each well for 10 minutes. The reaction was terminated with 2M HCl, and absorbance value at 450 nm was read with a Microplate Reader (purchased from Biotek, Elx808).
# For the hybridoma clones with good binding and internalization activities identified in Example 5, the heavy chain variable region sequences were synthesized and cloned into the pFUSEss-CHIg-hG1 vector (purchased from InvivoGen, catalog number pfusess-hchgl) comprising the amino acid sequence of the human antibody IgG1 heavy chain constant region by homologous recombination.
row,EC50 [µg/mL],Binder
1,0.0108,B1

# Molecular target: T2, human DLL3 (hDLL3) on cells
# Test: flow cytometry on SHP-77 cells, 1 µg/ml antibody, kept on ice (0 H of the internalization assay)
# Experimental: The SHP-77 cells were used to detect the internalization activity of the hybridoma antibodies obtained in Example 3-3 by using the FACS method described in Example 3-1. The detecting method is briefly described as follows: Six aliquots of 5×10⁵ SHP-77 cells each were prepared in a 96-well V-bottom plate and centrifuged at 1500 r/min for 1 minute, after which the supernatant was discarded. 1 μg/ml of the saturated antibody to be detected was added to each well (200 μL per well) and incubated on ice for 30 minutes. Then, 150 μL of PBS was added to each well, followed by centrifugation at 1500 r/min for 1 minute, and the supernatant was discarded. This step was repeated four times. The cells were resuspended in 200 μl of PBS, and one aliquot was incubated at 37° C. for various durations: 5 hours, 3 hours, 1 hour, 0.5 hours, and 15 minutes. The remaining aliquot was kept on ice. After incubation, all samples were centrifuged at 4° C., 1500 r/min for 1 minute, and the supernatant was discarded. APC-labeled goat anti-mouse IgG (Jackson, catalog number 109-605-098, diluted 1:800 in PBS) was added to each well (50 μL per well) and incubated on ice for 30 minutes. The cells were then washed four times by resuspending in 150 μL of PBS, followed by centrifugation at 1500 r/min for 1 minute and discarding the supernatant. Finally, the cells were resuspended in 100 μL of PBS and analyzed using a CytoFLEX flow cytometer (purchased from Beckman).
row,fluorescence value at 0 H,Binder
1,39300,B2
2,27600,B3
3,15400,B4
4,20300,B5
5,29600,B6
6,15300,B7
7,22400,B8
8,20300,B9
9,36000,B10
10,20300,B11
11,32100,B12
12,40200,B13
